Data from the DeepSol protein solubility set.

Experiment: soluble on expression in E. coli; label from the status in PepcDB or PDB records

Sequence	soluble on expression in E. coli
MQEKTTESRILDATGRPFKVREAKELQTDDVRLAGLHRTFSNHPSSGLTPASAASILLSAEQGDLIAQCELAEDIEEKDGHLFAELDKRKRALIGVDYYLEPPSNPTPQEKADTEYLQQMLEEGGWIKSLIKSIADAILKGFSMHELAWSRELGEWFVEVPEYRDPSWFMTHPERRNELRLRDSTHEGAELWPFGWIKHIHPAKSGYVSRSGLVRQLIWPFIFKNYSVRDLAEFLEIYGLPLRIGQYPAGASDGEKRALLNAVMSIGHNAGGIMPKGMVMDFHSAATGQADPFELMMTWAEKTMSKVILGGTLTTQADGKSSTNALGNVHNEVRQELRDADLALVAETLTRDLIAPLYALNCKSYRSHRRHPRLVFDTTEAEDLRALAYPLRAFVSMGMQIPQNWLHEKTRIPKPANGEAVLVIQQDDPNATAASQTALAALSAKEGAAKQPDASLNEPSQTALDKALDALTQGQMSEAYMGMVEPLLAQLQSEPEQLRAQLEQNYPNMDTEQLTETLARLMFVAELWGMANA	not soluble
MAHHHHHHMILKEETVLRKTNAENLAAVRNLNLWGEGLTDVSIVSRLPRIEVLALAANKLTTLSPFAACTQLEELYLRRNNVASMLEIKYLRHLPKLHTLWLMDNPCARHPHYRQIVILCCRHLRHLDETEVSEKERAEAEKLLPEGMLQEMLESESAEAAVGTANKAQLQNRTPVSERKQPMGEVVQGGAIHETGAGRERGHRVTSSDTSGRGPSSAPERRQGSADDGLAQTAVQVQRAMFSSIMALVPELAVQTIEALQKELAEELCRRGKRLPPVVRDRT	not soluble
MAHHHHHHMKDKLRAMGHPAMDAADREDSHAGCFSDSVGMQTYSLNTSLGAMHIMSRLNNEMSFVEDTASGSFGVVKKGVLDLDRQCYAVKQTKRVISGEGDLQQRLQEVYTLSACSHPNVLRYFDGWVEDRAVFVRTEWLSDGSVADFDRPFSEALLRSVIHQIASALHWLLCHHITHRDVKPENILARKMEDGTYTFKLADFGLARPLFRDRPNTGEEFRGTNDDDGDRRYLSPEAFAISEFSQQKGEADVYALGASCVELMGGDPSLVRNGCYTGNFHIYSAELQNLVQWMTRLDPQERPDAFMVALLTVDPALKSTRGFARRMAAIEGLRASVAELEKKVAETNATEKEEGGA	soluble
MPRGHAGDFPPPALSVRNRPGNSGLVLETCFAQLRSGRKDHGARVRNMTAPRSIVIGGGAFAGLALALALRQGLGPEVPVIVADPALALRPSRDPRATAIVAACRRLFEALGVWDEVAPTAQPIIDMVVTDSHLEDATRPVFLTFAGEVQPGEPFAHMVENRYLVEALAKRAEAEGVELRATPVTSYDARTEAIGVTLGDGSVIDASLLVAADGAKSKLRQRAGIATYGWDYDQSGIVVTVEHERDHNGCAEEHFLPAGPFAILPLTGRRSSLVWSESRRDAERIVALPEKEFQRELEKRFGLRLGDIKPLDKPKSFPLGYFVAQSFIAPRLALIGDAAHVIHPIAGQGLNMGLRDVAALAEVVVDAARLGIDPGQVDVLERYQRWRRFDTVAMGVATNGLNFLFSNNSPLLRGIRDIGLGLVDRLPPLKGAFIRQAAGLTGEIPRLLKGEALLEHHHHHH	soluble
MSLALAIFDLDETLIHGDCASLWSEQMARLGWVDGKDFLRRDHELMEAYGRGHLQMEDYMAFSLEPIAGRTLEEVEHLVAPWVEEVIEPIIYGDACRCIAEHRKRGDRILIISASGTHLVGPIAARLGVDEYLAIELEAVNGVYTGKTHGVLTYREGKITRLLEWLDQEQENLEGASFYSDSRNDLPLLLRVDHPHVVNPDAVLREHAEINGWPTLSWSEGHHHHHH	soluble
MMNTSDNHALGDFLRARRQRLDPATFGFPAGRRRTPGLRREEVAQLASISPTWYTWLEQGRGGAPSREVLERIARGLRLTTPEREHLFILAFGHPPQTRLTVTDDMTPRLQRVLDAFTIPAIIRTASWDVIAWNAPAARVLTDYSQLPLAERNVLRRLFTRPEARCTLEDWQRVGQLIVNAFRADVTRMGATKETDQLIAELSQQSVEFARFWQSHDVAGHGEGYKRINHPEMGPLDLEFTSFAVEGRPDLSLLVFNPATTESQRKIHGLLQGAGSAPEES	soluble
MSLVSLPKLSAKIIIRLIYIYQIGISPILGHHCRFSITCSQYGINSIRNFGILKGCWKTCIRILKCHPFNKNDNTQEGHHHHHH	soluble
MSLDKHLLVKRTLGCVCAATLMGAALATHHDSLNTVKAEEKTVQVQKGLPSIDSLHYLSENSKKEFKEELSKAGQESQKVKEILAKAQQADKQAQELAKMKIPEKIPMKPLHGPLYGGYFRTWHDKTSDPTEKDKVNSMGELPKEVDLAFIFHDWTKDYSLFWKELATKHVPKLNKQGTRVIRTIPWRFLAGGDNSGIAEDTSKYPNTPEGNKALAKAIVDEYVYKYNLDGLDVDVEHDSIPKVDKKEDTAGVERSIQVFEEIGKLIGPKGVDKSRLFIMDSTYMADKNPLIERGAPYINLLLVQVYGSQGEKGGWEPVSNRPEKTMEERWQGYSKYIRPEQYMIGFSFYEENAQEGNLWYDINSRKDEDKANGINTDITGTRAERYARWQPKTGGVKGGIFSYAIDRDGVAHEGHHHHHH	soluble
GMAEAKSRVGRPSGDTQNRDKLILAARNLFIERPYAQVSIREIASLAGTDPGLIRYYFGSKEKLFSTMIHETAMPVLAQLHKARRETRQESPAALLQTYYSVMSKHPHFPRLMLRIAGLDQSLPENAEVTKAFYEVVNFENIAIFQRLKDKNLLKDDVDAHCAQLSFFAMMVFPFIVPENLLERVGIELTPDFLQLLAEQNTRLLQRGLMDVKDERDE	soluble
MGSDKIHHHHHHMEITSKTYLSTILGNDLAAGFYPTPLTEGNHLIQLLQMESERAYACFDPCCGEGTILRSFADAVKQVGIQLDTYGVELDANRYNKAKEQLDVVIRSSFESMMISHDYFPLIFLNPPYNTELRTEKKKSEKMEFNFLKRAHHYLQDGGIMVYVIPYDRFARDEISYFLAKNYEEIGLMRFGDENEEFEQFKQCVFIGRKRAATKNDTYFNDRFANFCENMSELDFVREHVNTLAQMVNRKSWTIPTLRNQNKLIFTSRVDYKDAYEGVGKSEGILTLKKRLNRGNGYSLQAEKTAAERAKMPIASGQLGLLLITGVADGLLGEGDTLHAVRGSENVFFETSFEKLETTTKEVVLQKRRAKFIIATPTGEVKELV	not soluble
MRDLSHALGSGEPYPGDPPAAVTPHATMAADGYRVSAVACSTHSGTHIDAPSHLLADGRSLDAFDVSAFRFDAHVVDCTGYGPEDAIPVDRVPALDDHDMVVFNTGTAADWGRPEYYEHPHLSVAAAERCADAGCAVAVDAPSVDPTRTAPAGESSDAAAYPAHRALLGAGALIVENVTNLDGLPERVPVQAYPLPVAADGAPARVIAAPLEHHHHHH	soluble
AVTIPPARHAEPQRWIARLPGFKISENKAQALWELAGKNIEGLQTDKALPTDWQAWRSEPQNAALLENLKTFFAQMPSEDEAAQGSDGIN	not soluble
MEDKLITLAILTYAKAQILKNVLENEGIEAYIHNVNLIQPVISSGVRLRIKESDLPHALQIIESSAWLSEDIIKGKESSSERNKEKRKVLIPIDFSNYSLKACQFGFSFANAINSEVVLLHAYFSPIYVPTIPYGTDNFNFQIEREESVKSMIETVHNELNKLSDTIKKKVESGEFPNIKYTCILRDGIPEEEILRYAKEYNPQIIIMGTRGRSQKDIDLIGSVTAEVIERSKSFVYAIPEHTPLKTFNDIKKVAFVTNFDQRDLIAFDSLINAFKSFHFAVSFIHLSTDNDAWNEIKLAGIKDYFQKQYSKLELYYNVVKEDNILNNLDNYVKEENIDVICITNYKRNIFARLFNPSIARKMIFHANTPILVIK	not soluble
MAGDPMDKNKLFFIETWGCQMNAEDSEKLAGMLKEMKYEATDNREDADLIIFNTCCVRENAELKVYGNLGTLKKLKDKKPNLIITVCGCMMQQRDMAEHIKKRFPFVDIVMGTHNTQMFPQYLKKVENERTSVVEIWDKEEGIVEGMPIYRSYDMKAFVTIMYGCNNFCTYCIVPYVRGRERSRKPEDIENEIKELVKKGYKEITLLGQNVNSYGKSLDEEMNFALLLRRLNNIEGLLRIRFMTSHPKDLTDDVIAAIADCDKVCEHIHLPVQSGSTTILNKMNRNYTREDYINLVNKIKSGIKNVAITTDIIVGFPGETEEDFEDTLSLVKEVEYDSAFTFLYSIREGTPAAKYENQIPDEVKHKRFNKLLEAVNLISEKKNKEYEGKIVEILVEGKSKNDGSKLMGRTRTGKLVNFEGLESSIGKLINVKITKAQAFSLVGEEVLEHHHHHH	not soluble
DVQLLESGPGLVAPSQSLSITCTVSGFSLTNYGVDWVRQPPGKGLEWVGVIWSGGSTNYNSALMSRLSISKDNSKSQVFLKMNSLQTDDTAVYYCAKHWGGYYIPYGMDHWGQGTTVTVSSASTKGPSVFPLAPSSKSTSGGTAALGCLVKDYFPEPVTVSWNSGALTSGVHTFPAVLQSSGLYSLSSVVTVPSSSLGTQTYICNVNHKPSNTKVDKKVEPKSCDKTHT	soluble
MDLKITNGFYDPSHLSYEVVERKGLGHPDTLADGIAEQIEIDYSLYCLDKFGVIPHHNFDKIIIRGGHSVQDFGGSDFIEPIKIIFLGRASKKCFNSSIPLFKIQKKAATKYLNRILPNLDVENYVEFETLTSDFTTKTNWFSPEAIEDLPEYLDVPKANDTATMISYWPLTISEELALMIEGYFYKLDKNELPTPRFTKMGGDIKVMVVRNDLEYSIRINFPLISKFFNNDIESQLYVDKHVEKIKKYIEQKYKNISFSIDYHYYLTTTGSCIDFGEEGAVGRGNKTHGIISSFRPNTMEAPAGKNCTYFVGKVWGFLSDTIAKEIYEAFNTPCQIIMQLNIGSKLYRPTHLFIQTEESVDQERVLEIVNRHLNNGKQNTNLILSTQHFIPKTNVYDG	not soluble
MVFNRVVQIGRVVFIASGKDQGKLAAIVNVIDGNRVQIDGPSSDVTRTVRNLKDLQLTKFVLKLRVGQRTKGVKAAFDAAKVTENFQKTQWAKKIAQRAIRAKLTDFERYKLMKAKQMRNRIVRVELAKLKKAQK	not soluble
YRQQFDFSCGSAALASLLTFHYDDSVDEQSVFVDMFQHGDQEKIRREGFSMLDMKRYLERRGYGSDGFKINLDQLYSTGSPAITIINHNGYMHFVIIKGVDEDRVLVGDPAQGVKSMDRTEFERMWGNRIVFLIHNHVD	not soluble
MGSDKIHHHHHHVGTGDGNAIWPIRSVHLIGAIYPHILEELMLNTVILYSTVDGQTLAICQKIKQILVEQGEQVSVVNLAEVEADDLASVDKVVIGASIRYGKHRPELFKFVEQHKVLLDTKHNSFFSVNVVARKPEKNTPETNPYMQKFSNLSAWKPQLLGVFAGKIDYPRYRFFDKFMIRFIMWMTKGPTDTQGTFEFTDWGKVDDYAKQIAAQK	not soluble
MLSTVFLLATLAASAAADGYSCARNTLINPPQDLSKPYYYPETWRENMEPPQYAPNQKCNWKINVPQGMYATVIFYKKTKYEIGIQCAYPGKDLEYINDYEQSPYIFTSPQFQVDLKVGDKPGAFSFKVVWSKYPPGSAMNIELDGIHSISGVASSFYTTYTAINQVMIVGFSVPDVDTNLLRQSAIYDGDSVNAKFLGNLFDALEGQIVSTGNKLTIYTFGLENQVDNTLFMGLDTKAAGDIEQYTGLNCPVDRTRGCSIILHSYFYATAEARISRQPDYLMLPDSFPYNATLKIYGETLQDSSLFAAVNKSNYQTMFPMKVTNSLKIYHLDHDIVSIDVTNNADEAKWSTVYDGRNIKVQSMDYGRTSFYQDTMETFTTEPNTQMYFKFNVKYFDVNGPTSLAIKVYNNAKIVYSETYTATNLPTPYNVRVYGDKMDINYQTFGNYTQGFEVNIVTTKNG	not soluble
